The results in this text go back to article PMC8191761, “The three-way junction structure of the HIV-1 PBS-segment binds host enzyme important for viral infectivity”.

The target in this data set is RHA (DHX9/RNA helicase A) (UniProt Q08211 1-1270). The data set is described as follows: EMSA; 0.5 uM RNA, 0-4 uM RHA; preferred over TAR-PolyA; EMSA: binding buffer A, 10 mM Tris-HCl pH 7.5, 140 mM KCl, 10 mM KCl (so in the source); probably NaCl), 1 mM MgCl2, 37 C 10 min, 1.5% agarose; ITC: binding buffer B. To be noted: protein: recombinant; tags: N-terminal His6 and Mocr tags; label: site-specific 2H labels in some NMR samples; three-way junction.
Sequence of RHA (DHX9/RNA helicase A) (Q08211 whole entry): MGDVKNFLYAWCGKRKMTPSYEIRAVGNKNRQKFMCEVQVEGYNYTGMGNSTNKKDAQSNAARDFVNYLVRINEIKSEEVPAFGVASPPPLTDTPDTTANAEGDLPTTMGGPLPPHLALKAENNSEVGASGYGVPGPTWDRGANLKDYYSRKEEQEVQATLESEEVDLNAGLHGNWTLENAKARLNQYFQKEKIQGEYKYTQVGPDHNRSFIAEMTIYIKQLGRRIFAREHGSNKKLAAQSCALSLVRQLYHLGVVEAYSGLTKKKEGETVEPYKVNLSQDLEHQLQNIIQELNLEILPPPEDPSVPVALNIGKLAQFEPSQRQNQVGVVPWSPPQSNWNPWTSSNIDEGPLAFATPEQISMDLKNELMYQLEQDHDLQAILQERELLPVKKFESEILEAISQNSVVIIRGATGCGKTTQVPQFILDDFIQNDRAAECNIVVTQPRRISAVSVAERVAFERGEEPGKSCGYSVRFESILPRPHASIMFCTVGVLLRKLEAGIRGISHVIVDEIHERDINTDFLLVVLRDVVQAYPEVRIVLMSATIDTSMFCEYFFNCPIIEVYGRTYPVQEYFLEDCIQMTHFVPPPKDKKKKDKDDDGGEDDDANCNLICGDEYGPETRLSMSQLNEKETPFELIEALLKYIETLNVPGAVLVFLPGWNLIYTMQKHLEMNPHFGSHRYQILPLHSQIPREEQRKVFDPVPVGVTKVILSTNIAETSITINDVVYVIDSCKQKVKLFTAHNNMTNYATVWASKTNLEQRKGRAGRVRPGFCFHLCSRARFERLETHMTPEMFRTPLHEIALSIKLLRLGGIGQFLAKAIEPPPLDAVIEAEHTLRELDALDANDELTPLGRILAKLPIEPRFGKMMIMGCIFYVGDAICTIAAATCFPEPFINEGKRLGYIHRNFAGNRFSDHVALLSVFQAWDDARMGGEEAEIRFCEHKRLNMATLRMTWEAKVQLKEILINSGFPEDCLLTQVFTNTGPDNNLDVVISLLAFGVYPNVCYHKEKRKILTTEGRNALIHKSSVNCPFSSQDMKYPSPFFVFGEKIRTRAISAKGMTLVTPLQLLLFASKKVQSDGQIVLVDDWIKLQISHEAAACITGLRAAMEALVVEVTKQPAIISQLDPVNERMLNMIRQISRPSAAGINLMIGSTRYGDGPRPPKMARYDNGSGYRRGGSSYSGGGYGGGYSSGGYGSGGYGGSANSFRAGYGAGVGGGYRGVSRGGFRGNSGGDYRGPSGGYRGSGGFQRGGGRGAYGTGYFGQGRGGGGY

B1: PBS-segment (nt 125-223) (structured_RNA)
RNA: GGCUCUGGUAACUAGAGAUCCCUCAGACCCUUUUAGUCAGUGUGGAAAAUCUCUAGCAGUGGCGCCCGAACAGGGACUUGAAAGCGAAAGUAAAGCCAGAGCC
Take B1: the binding result is reported as “binds”.
